Test results: patent WO2025083273A1 (dated 2025)
Positions count from the first letter of the chain named. Names may count otherwise.

T1: human DR3 (TNFRSF25) expressed on cells (human, UniProt Q93038 25-417)
T1 sequence: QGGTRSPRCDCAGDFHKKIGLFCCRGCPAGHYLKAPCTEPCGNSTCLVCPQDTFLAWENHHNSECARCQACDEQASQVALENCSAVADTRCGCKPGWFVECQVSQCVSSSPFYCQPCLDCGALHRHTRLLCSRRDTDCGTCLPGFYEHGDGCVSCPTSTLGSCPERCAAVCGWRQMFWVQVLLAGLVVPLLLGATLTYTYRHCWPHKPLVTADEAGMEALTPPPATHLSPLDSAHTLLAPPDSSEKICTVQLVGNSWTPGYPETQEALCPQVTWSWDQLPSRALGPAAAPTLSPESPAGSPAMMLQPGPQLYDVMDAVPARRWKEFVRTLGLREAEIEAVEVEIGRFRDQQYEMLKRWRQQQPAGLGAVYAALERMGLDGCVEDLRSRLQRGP

T2: DR3-8i (human)
T2 construct: also called purified monomeric DR3-8i antigen protein
T2 chain: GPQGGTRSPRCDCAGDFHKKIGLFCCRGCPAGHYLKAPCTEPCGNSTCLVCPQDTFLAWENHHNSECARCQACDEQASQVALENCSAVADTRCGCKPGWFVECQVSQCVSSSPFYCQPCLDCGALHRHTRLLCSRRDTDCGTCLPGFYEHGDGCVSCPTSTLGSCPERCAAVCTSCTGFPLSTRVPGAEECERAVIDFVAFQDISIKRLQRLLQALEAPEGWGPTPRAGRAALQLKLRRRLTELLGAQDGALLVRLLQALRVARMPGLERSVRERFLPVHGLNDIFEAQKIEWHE

T3: recombinant human DR3/TNFRSF25 Fc chimera (human, UniProt Q93038 25-199)
T3 construct: extracellular domain; bought (R&D Systems); also called DR3-Fc; hDR3Fc chimera; not shown: human IgG1 Fc
T3 sequence (looked up): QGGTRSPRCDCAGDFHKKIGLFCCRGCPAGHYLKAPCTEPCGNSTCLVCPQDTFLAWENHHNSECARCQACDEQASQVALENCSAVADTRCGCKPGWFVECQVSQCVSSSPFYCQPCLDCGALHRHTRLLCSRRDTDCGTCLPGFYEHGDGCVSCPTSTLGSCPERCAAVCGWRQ

B1: VHg1/VLg4 (antibody, human IgG1, V domains shown)
VH: QVQLVQSGGGLVQPGGSLRLSCAASGFTFSSYAMSWVRQAPGKGLEWVSTISDGDSYSYFPDSVKDRFTISRDNSKNTLYLQMNSLRAEDTSVYYCARDRIYGSVQYYAMDYWGQGTLVTVSS
VL: DVVMTQSPDSLAVSLGERATISCRASESVEFSGTSLMQWYQQKPRQPLKLLIYAASNVESGVPDRFSGSGSGTDFTLTISSLQAEDVAVYYCQQSRKLPYTFGQGTRLEIK
notes: human IgG1
B2: VHg1/VLg11 (antibody, human IgG1, V domains shown)
VH: B1 VH
VL: B1 VL with V2I, S22N, R45G, L48P, R107K
notes: human IgG1; also called H1L11; VHg1/VL11
B3: VHg2/VLg4 (antibody, human IgG1, V domains shown)
VH: B1 VH with V2M, Q13K, V37I, S75A, T78S, S92A, A97T, Q115R
VL: B1 VL
notes: human IgG1
B4: VHg3/VLg4 (antibody, human IgG1, V domains shown)
VH: B1 VH with Q1E, Q13K, T28K, V48L, T69I, S75A, T78S, A88V, S92G
VL: B1 VL
notes: human IgG1
B5: VHg5/VLg11 (antibody, human IgG1, V domains shown)
VH: B1 VH with V5Q, P14A, S30T, S49A, T69I, S75A, T78S, Y80F, S92A, Q115R
VL: B1 VL with V2I, S22N, R45G, L48P, R107K
notes: human IgG1
B6: VHg6/VLg1 (antibody, human IgG1, V domains shown)
VH: B1 VH with V5Q, S49A, S75A, K76R, T78S, S92A, Q115R
VL: B1 VL with S22N, R45G, L48P, A88V, Q104G, R107K, L108V
notes: human IgG1
B7: VHg6/VLg11 (antibody, human IgG1, V domains shown)
VH: B1 VH with V5Q, S49A, S75A, K76R, T78S, S92A, Q115R
VL: B1 VL with V2I, S22N, R45G, L48P, R107K
notes: human IgG1
B8: VHg5/VLg12 (antibody, human IgG1, V domains shown)
VH: B1 VH with V5Q, P14A, S30T, S49A, T69I, S75A, T78S, Y80F, S92A, Q115R
VL: EIVLTQSPATLSLSPGERATLSCRASESVEFSGTSLMQWYQQKPGQAPRLLIYAASNVESGIPARFSGSGSGTDFTLTISSLEPEDFAVYYCQQSRKLPYTFGQGTKLEIK
notes: human IgG1
B9: VHg6/VLg13 (antibody, human IgG1, V domains shown)
VH: B1 VH with V5Q, S49A, S75A, K76R, T78S, S92A, Q115R
VL: DIQMTQSPSSLSASVGDRVTITCRASESVEFSGTSLMQWYQQKPGKAPKLLIYAASNVESGVPSRFSGSGSGTDFTFTISSLQPEDIATYYCQQSRKLPYTFGQGTKLEIK
notes: human IgG1
B10: VHg2/VLg13 (antibody, human IgG1, V domains shown)
VH: B1 VH with V2M, Q13K, V37I, S75A, T78S, S92A, A97T, Q115R
VL: B9 VL
notes: human IgG1
B11: VHg5/VLg2 (antibody, human IgG1, V domains shown)
VH: B1 VH with V5Q, P14A, S30T, S49A, T69I, S75A, T78S, Y80F, S92A, Q115R
VL: B9 VL with M4L, P44A, K46L, F77L, I87F, A88G, K107R
notes: human IgG1
B12: VHg5/VLg13 (antibody, human IgG1, V domains shown)
VH: B1 VH with V5Q, P14A, S30T, S49A, T69I, S75A, T78S, Y80F, S92A, Q115R
VL: B9 VL
notes: human IgG1
B13: VHg2/VLg2 (antibody, human IgG1, V domains shown)
VH: B1 VH with V2M, Q13K, V37I, S75A, T78S, S92A, A97T, Q115R
VL: B9 VL with M4L, P44A, K46L, F77L, I87F, A88G, K107R
notes: human IgG1
B14: VHg2/VLs10 (antibody, human IgG1, V domains shown)
VH: B1 VH with V2M, Q13K, V37I, S75A, T78S, S92A, A97T, Q115R
VL: ETTLTQSPGTLSLSPGERATLSCRASQSVSSSSLAWYQQKPGQAPRLLIYGASSRATGIPDRFSGSGSGTDFTLTISRLEPEDFAVYYCHQYGGSWTFGKGTKVEIK
notes: human IgG1; also called VHg2_VLg10
B15: B9-hIgG1 (antibody, V domains shown)
VH: EVQLVESGGGLVKPGGSLKLSCSASGFTFSSYAMSWVRQTPEKRLEWVATISDGDSYSYFPDSVKDRFIISRDNAKNNLFLQMSHLRSEDTAMYYCTRDRIYGSVQYYAMDYWGQGTSVTVSS
VL: DIVLTQSPASLAVSLGQRATISCRASESVEFSGTSLMQWYQQRPGLPPKLLIYAASNVESGVPARFSGSGSGTDFSLNIHPVEEDDIAMYFCQQSRKLPYTFGGGTKLEIN
notes: chimeric: mouse B9 variable regions, human IgG1; also called B9-H1; Non-humanised B9
B16: VHg10/VLg6 (antibody, human IgG1, V domains shown)
VH: B1 VH with Q1E, Q6E, S92A
VL: DVVMTQSPPSLPVTPGEPASISCRASESVEFSGTSLMQWYLQKPGQSPQVLIYAASNVESGVPDRFSGSGSGTDFTLKISRVEAEDVGVYYCQQSRKLPYTFGQGTRLEIK
notes: human IgG1
B17: B9 mIgG2A (antibody, V domains shown)
VH: B15 VH
VL: B15 VL
notes: parental mouse IgG2a, kappa; also called B9-M2A; murine anti-hDR3 mAb clone B9
B18: F10 mIgG1 (antibody, V domains shown)
VH: EVQLVESGGDLVKPGGSLKLSCAASGFSFSAYAMSWVRQTPEKILEWVATISDGDPYTYYPDNVKGRFTISRDNARNNLYLQMSHLRSEDTAIYYCTRERNDYDQYYTMDYWGQGTSVTVSS
VL: DIVLTQSPASLVVSLGQRATISCRASKSVSTSGYNYLHWYQQTPGQPPKLLIYLASNLESGVPARFSGSGSGTDFTLNIHPVEEEDVATYYCQHSRELPWTFGRGTKLEIKR
notes: parental mouse IgG1; also called F10-M1; murine anti-hDR3 mAb clone F10

Molecular target: T1, human DR3 (TNFRSF25) expressed on cells
Assay: cell-based or functional assay

**Q.** How did the “Signal (FLU)” value turn out when B1 was run?
**A.** 2.09e+06 FLU

**Q.** What does the source list for B2?
**A.** EC50 (pM), DR3 Jurkat reporter: 331 pM; Signal (FLU): 2.47e+06 FLU

**Q.** For B3, which “Signal (FLU)” value is on record?
**A.** 2.21e+06 FLU

**Q.** With B4 as the binder, how does the “Signal (FLU)” value read?
**A.** 2.32e+06 FLU

**Q.** With B5 as the binder, how does the “Signal (FLU)” value read?
**A.** 2.4e+06 FLU

**Q.** Which “Signal (FLU)” value does the source give for B6 here?
**A.** 2.16e+06 FLU

**Q.** How did the “EC50 (pM), DR3 Jurkat reporter” value turn out when B7 was run?
**A.** 130 pM

**Q.** And the “Signal (FLU)” value?
**A.** 2.45e+06 FLU

**Q.** For B8, which “Signal (FLU)” value is on record?
**A.** 2.62e+06 FLU

**Q.** How did the “EC50 (pM), DR3 Jurkat reporter” value turn out when B9 was run?
**A.** 141 pM

**Q.** And the “Signal (FLU)” value?
**A.** 2.75e+06 FLU

**Q.** For B10, which “Signal (FLU)” value is on record?
**A.** 2.94e+06 FLU

**Q.** B11 was tested. Which “Signal (FLU)” value did it give?
**A.** 2.76e+06 FLU

**Q.** How did the “Signal (FLU)” value turn out when B12 was run?
**A.** 2.7e+06 FLU

**Q.** For B13, which “EC50 (pM), DR3 Jurkat reporter” value is on record?
**A.** 103 pM

**Q.** What about the “Signal (FLU)” value of the same binder?
**A.** 2.5e+06 FLU

**Q.** With B14 as the binder, how does the “EC50 (pM), DR3 Jurkat reporter” value read?
**A.** 644 pM

**Q.** And the “Signal (FLU)” value?
**A.** 2.34e+06 FLU

**Q.** How did the “EC50 (pM), DR3 Jurkat reporter” value turn out when B15 was run?
**A.** 457 pM

**Q.** Which “Signal (FLU)” value does the source give for B16 here?
**A.** 2.75e+06 FLU

Molecular target: T2, DR3-8i
Assay: BLI, IgG captured on protein A, DR3-8i in solution; Average

**Q.** B7 was tested. Which Kd did it give?
**A.** 0.145 nM

**Q.** Which Kd does the source give for B9 here?
**A.** 0.16 nM

**Q.** B13 was tested. Which Kd did it give?
**A.** 0.106 nM

**Q.** B14 was tested. Which Kd did it give?
**A.** 0.415 nM

**Q.** Which Kd does the source give for B15 here?
**A.** 0.259 nM

**Q.** B16 was tested. Which Kd did it give?
**A.** 0.326 nM

Molecular target: T2, DR3-8i
Assay: BLI, IgG captured on protein A, DR3-8i in solution; Experiment 1

**Q.** With B2 as the binder, how does the Kd read?
**A.** 0.001 nM

**Q.** For B7, which Kd is on record?
**A.** 0.19 nM

**Q.** How did the Kd turn out when B9 was run?
**A.** 0.225 nM

**Q.** Which Kd does the source give for B13 here?
**A.** 0.001 nM

**Q.** How did the Kd turn out when B14 was run?
**A.** 0.41 nM

**Q.** B15 was tested. Which Kd did it give?
**A.** 0.327 nM

**Q.** B16 was tested. Which Kd did it give?
**A.** 0.418 nM

Molecular target: T2, DR3-8i
Assay: BLI, IgG captured on protein A, DR3-8i in solution; Experiment 2

**Q.** For B7, which Kd is on record?
**A.** 0.0999 nM

**Q.** For B9, which Kd is on record?
**A.** 0.0956 nM

**Q.** B13 was tested. Which Kd did it give?
**A.** 0.21 nM

**Q.** For B14, which Kd is on record?
**A.** 0.42 nM

**Q.** With B15 as the binder, how does the Kd read?
**A.** 0.19 nM

**Q.** With B16 as the binder, how does the Kd read?
**A.** 0.234 nM

Molecular target: T3, recombinant human DR3/TNFRSF25 Fc …
Assay: SPR (Biacore), His-tagged hDR3-Fc captured by anti-His mAb, bivalent fit; apparent KD

**Q.** Which Kd does the source give for B17 here?
**A.** 0.561 nM

**Q.** How did the Kd turn out when B18 was run?
**A.** 1.07 nM

Molecular target: T2, DR3-8i
Assay: BLI, IgG captured on protein A, DR3-8i in solution; single experiment, column not clear

**Q.** How did the Kd turn out when B1 was run?
**A.** 0.196 nM

**Q.** Which Kd does the source give for B3 here?
**A.** 0.0248 nM

**Q.** Which Kd does the source give for B4 here?
**A.** 0.385 nM

**Q.** For B5, which Kd is on record?
**A.** 0.0881 nM

**Q.** B6 was tested. Which Kd did it give?
**A.** 0.076 nM

**Q.** How did the Kd turn out when B8 was run?
**A.** 0.126 nM

**Q.** For B10, which Kd is on record?
**A.** 0.157 nM

**Q.** For B11, which Kd is on record?
**A.** 0.132 nM

**Q.** With B12 as the binder, how does the Kd read?
**A.** 0.124 nM

Molecular target: T3, recombinant human DR3/TNFRSF25 Fc …
Assay: HTRF epitope competition on DR3-Fc; competitor DyLight 650 labelled B9 IgG; mean ± SD of three experiments

**Q.** With B2 as the binder, how does the IC50 read?
**A.** 0.447 nM

**Q.** B7 was tested. Which IC50 did it give?
**A.** 0.287 nM

**Q.** B9 was tested. Which IC50 did it give?
**A.** 0.348 nM

**Q.** Which IC50 does the source give for B15 here?
**A.** 0.252 nM
